# In US20220073617A1 (Five Prime, published 2022):
# Residue numbers refer to the chain shown, from its start. Names and notes keep the numbering of the source. Values joined by “and” are separate entries in the source; they are usually repeats but may differ in a detail not shown here. Equal values may be shown once.
# B1: P1-061528 (41F11 NGS mut VK_A64G/R91A) (antibody, V domains shown)
# VH: QVQLVESGGGLVKPGGSLRLSCAASGFTFSDYYMSWIRQAPGKGLEWVSYISNSGSPIYYADSVKGRFTISRDNAKNSLYLQMNSLRAEDTAVYYCARDLPGWYFDLWGRGTLVTVSS
# VL: EIVLTQSPATLSLSPGERATLSCRASQSVSSYLAWYQQKPGQAPRLLIYDASNRATGIPARFSGSGSGTDFTLTISSLEPEDFAVYYCQQANNWPRTFGQGTKVEIK
# notes: also called P1-061528-2
# B2: P1-065320 (41F11_VH_L96EF100aG VK_A64G) (antibody, V domains shown)
# VH: B1 VH with L100E, F105G
# VL: B1 VL with A91R
# B3: P1-064510 (41F11_Vk_A25E/V29D/A64G/R91T) (antibody, V domains shown)
# VH: B1 VH
# VL: B1 VL with A25E, V29D, A91T
# notes: also called P1-064510-1
# B4: P1-065332 (41F11_VH_T28P/Y50W/S55E/A60H/Y100E VK_A64G) (antibody, V domains shown)
# VH: B1 VH with T28P, Y50W, S56E, A61H, Y104E
# VL: B1 VL with A91R
# notes: Kabat positions; also called P1-065332-1
# B5: P1-064391 (41F11_HC_Mutant: D31E/Y50W/S55E/Y100E 41F11_LC_Mutant: V29D/A64G/R91T) (antibody, V domains shown)
# VH: B1 VH with D31E, Y50W, S56E, Y104E
# VL: B1 VL with V29D, A91T
# notes: Kabat positions; also called P1-064391-1
# B6: P1-063001 (41F11_LC_Mutant: V29D/A64G/R91T) (antibody, V domains shown)
# VH: B1 VH
# VL: B1 VL with V29D, A91T
# notes: also called P1-063001-5; P1-063001-6
# B7: P1-063153 (41F11_HC_mutant: D31E/Y50W/S55E/Y100E) (antibody, V domains shown)
# VH: B1 VH with D31E, Y50W, S56E, Y104E
# VL: B1 VL with G64A, A91R
# notes: Kabat positions; also called P1-063153-5
# B8: P1-065064 (41F11_LC_Mutant: V29D/A64G/R91T) (antibody, V domains shown)
# VH: B1 VH
# VL: B1 VL with V29D, A91T
# notes: Same printed description as P1-063001 under another ID; also called P1-065064-1
# B9: P1-064490 (41F11_VH_F27EY50EL96E) (antibody, V domains shown)
# VH: B1 VH with F27E, Y50E, L100E
# VL: B1 VL with G64A, A91R
# notes: Kabat positions; also called P1-064490-1; P1-064490-2
# B10: P1-064392 (41F11_HC_Mutant: D31E/Y50W/S55E/Y100E 41F11_LC_Mutant: V29D/A64G/Q89E/R91T) (antibody, V domains shown)
# VH: B1 VH with D31E, Y50W, S56E, Y104E
# VL: B1 VL with V29D, Q89E, A91T
# notes: Kabat positions; also called P1-064392-1
# B11: P1-063125 (41F11_HC_Mutant: T28P/Y50W/S55E/Y100E) (antibody, V domains shown)
# VH: B1 VH with T28P, Y50W, S56E, Y104E
# VL: B1 VL with G64A, A91R
# notes: Kabat positions; also called P1-063125-5
# Biological target: T1, monovalent hVISTA-ECD (human VISTA extracellular domain with His tail) (human, UniProt Q9H7M9 33-193)
# T1 construct: analyte flowed over captured antibody; also called huVISTA-His
# T1 sequence (Q9H7M9 other isoform, or with tags, fused parts or gaps limits assumed): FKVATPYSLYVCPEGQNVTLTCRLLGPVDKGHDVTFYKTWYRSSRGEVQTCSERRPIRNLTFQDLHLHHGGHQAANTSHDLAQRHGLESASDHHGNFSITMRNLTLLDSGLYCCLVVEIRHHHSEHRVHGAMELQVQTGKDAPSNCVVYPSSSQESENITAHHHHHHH
# Experiment: SPR
# Experimental: (§1) Binding of several preparations of each of the '029 progeny clones and of the parent '029 antibodies, formatted as IgG1.3 antibodies, to human VISTA at pH 6.0 and 7.4 was measured by Surface plasmon resonance (SPR). SPR analysis was performed to measure koff and KD binding affinity measurements for VISTA Abs at acidic and neutral pHs using a Biacore® T100 instrument (GE Healthcare). Protein A (ThermoFisher Scientific catalog #21181) was diluted to 20 ug/ml in 10 mM sodium acetate pH 4.5 and immobilized onto flow cells of a CM5 biosensor following the manufacturer's amine coupling protocol (GE Healthcare), targeting 2,000 RU immobilization density of Protein A per flow cell. SPR experiments were conducted at 37° C. using PBST (137 mM sodium chloride, 2.7 mM potassium chloride, 10 mM phosphate buffer, 0.05% Tween® 20) running buffer at pH 7.4 and 6.0. Antibodies were diluted to 25 nM in PBST pH 7.4, and were captured across active biosensor flow cells at 5 ul/min for 60 seconds. […] Two 15 second injections of 10 mM glycine pH 1.5 were used to regenerate the Protein A capture surface between assay cycles. Rate constants ka (kₒₙ) and kd (koff) were derived from reference flow cell and 0 nM blank-subtracted sensorgrams, and were fit to a 1:1 binding model in Biacore® T200 Evaluation Software v.2.0. The affinity constant, KD was calculated as the ratio of rate constants koff/kₒₙ for each VISTA antibody. […]
row,Binder,KD ratio (pH 7.4/pH 6.0)
1,B1,7.88
2,B2,45.5
3,B3,33.8
4,B4,1.11

# Biological target: T1, monovalent hVISTA-ECD (human VISTA …)
# Experiment: SPR
# Remark: another data set of the same source
# Experimental: (§2) Binding of several preparations of each of the '029 progeny clones and of the parent '029 antibodies, formatted as IgG1.3 antibodies, to human VISTA at pH 6.0 and 7.4 was measured by Surface plasmon resonance (SPR). SPR analysis was performed to measure koff and KD binding affinity measurements for VISTA Abs at acidic and neutral pHs using a Biacore® T100 instrument (GE Healthcare). Protein A (ThermoFisher Scientific catalog #21181) was diluted to 20 ug/ml in 10 mM sodium acetate pH 4.5 and immobilized onto flow cells of a CM5 biosensor following the manufacturer's amine coupling protocol (GE Healthcare), targeting 2,000 RU immobilization density of Protein A per flow cell. SPR experiments were conducted at 37° C. using PBST (137 mM sodium chloride, 2.7 mM potassium chloride, 10 mM phosphate buffer, 0.05% Tween® 20) running buffer at pH 7.4 and 6.0. Antibodies were diluted to 25 nM in PBST pH 7.4, and were captured across active biosensor flow cells at 5 ul/min for 60 seconds. […] Two 15 second injections of 10 mM glycine pH 1.5 were used to regenerate the Protein A capture surface between assay cycles. Rate constants ka (kₒₙ) and kd (koff) were derived from reference flow cell and 0 nM blank-subtracted sensorgrams, and were fit to a 1:1 binding model in Biacore® T200 Evaluation Software v.2.0. The affinity constant, KD was calculated as the ratio of rate constants koff/kₒₙ for each VISTA antibody.
Binder,pH 6.0/7.4 KD,pH 6.0/7.4 kd
B1,3.3,12
B5,0.2,2.1
B6,2.7,10.2
B7,0.8,3.9
B8,3,11.2
B3,0.6,4.8
B9,0.3,4
B10,0.1,1.2
B11,0.9,3.9

# Biological target: T1, monovalent hVISTA-ECD (human VISTA …)
# Experiment: SPR, pH 6.0
# Experimental: as §1
Binder,Kd,koff,kon
B1,3.86 nM,0.00237 s⁻¹,616000 M⁻¹ s⁻¹
B2,55.8 nM,0.0387 s⁻¹,694000 M⁻¹ s⁻¹
B6,0.644 nM and 0.751 nM,0.00168 s⁻¹ and 0.00171 s⁻¹,2.61e+06 M⁻¹ s⁻¹ and 2.28e+06 M⁻¹ s⁻¹
B7,0.139 nM and 0.223 nM,0.00114 s⁻¹ and 0.000909 s⁻¹,8.19e+06 M⁻¹ s⁻¹ and 4.07e+06 M⁻¹ s⁻¹
B3,2.51 nM,0.00312 s⁻¹,1.24e+06 M⁻¹ s⁻¹
B9,34.8 nM and 31.4 nM,0.00726 s⁻¹ and 0.00818 s⁻¹,209000 M⁻¹ s⁻¹ and 260000 M⁻¹ s⁻¹
B11,0.356 nM and 0.435 nM,0.00124 s⁻¹ and 0.0012 s⁻¹,3.47e+06 M⁻¹ s⁻¹ and 2.77e+06 M⁻¹ s⁻¹
B4,0.409 nM,0.00221 s⁻¹,5.41e+06 M⁻¹ s⁻¹

# Biological target: T1, monovalent hVISTA-ECD (human VISTA …)
# Experiment: SPR, pH 7.4
# Experimental: as §1
Binder,Kd,koff,kon
B1,30.4 nM,0.00019 s⁻¹,6260 M⁻¹ s⁻¹
B2,2540 nM,0.0352 s⁻¹,13800 M⁻¹ s⁻¹
B6,0.665 nM and 0.737 nM,0.00013 s⁻¹ and 0.00012 s⁻¹,195000 M⁻¹ s⁻¹ and 163000 M⁻¹ s⁻¹
B7,0.101 nM and 0.0675 nM,6.9e-05 s⁻¹ and 4.05e-05 s⁻¹,685000 M⁻¹ s⁻¹ and 600000 M⁻¹ s⁻¹
B3,84.8 nM,0.000527 s⁻¹,6220 M⁻¹ s⁻¹
B9,–,0.00266 s⁻¹ and 0.0023 s⁻¹,–
B11,0.365 nM and 0.32 nM,0.000178 s⁻¹ and 0.000141 s⁻¹,488000 M⁻¹ s⁻¹ and 441000 M⁻¹ s⁻¹
B4,0.456 nM,0.000236 s⁻¹,517000 M⁻¹ s⁻¹

# Biological target: T1, monovalent hVISTA-ECD (human VISTA …)
# Experiment: SPR, pH 6.0
# Remark: another data set of the same source
# Experimental: as §2
Binder,Kd,kd improvement vs parent,koff,kon
B1,4.7 nM,51.4 fold,0.0021 s⁻¹,450000 M⁻¹ s⁻¹
B5,6.4 nM,3.3 fold,0.033 s⁻¹,5.1e+06 M⁻¹ s⁻¹
B6,1 nM,81.7 fold,0.0013 s⁻¹,1.3e+06 M⁻¹ s⁻¹
B7,0.13 nM,233 fold,0.00046 s⁻¹,3.6e+06 M⁻¹ s⁻¹
B8,1.1 nM,80.5 fold,0.0013 s⁻¹,1.3e+06 M⁻¹ s⁻¹
B3,2.6 nM,35 fold,0.0031 s⁻¹,1.2e+06 M⁻¹ s⁻¹
B9,22 nM,8.2 fold,0.013 s⁻¹,600000 M⁻¹ s⁻¹
B10,1.8 nM,12.4 fold,0.0086 s⁻¹,4.8e+06 M⁻¹ s⁻¹
B11,0.25 nM,136 fold,0.00079 s⁻¹,3.1e+06 M⁻¹ s⁻¹

# Biological target: T1, monovalent hVISTA-ECD (human VISTA …)
# Experiment: SPR, pH 7.4
# Remark: another data set of the same source
# Experimental: as §2
Binder,Kd,kd improvement vs parent,koff,kon
B1,1.4 nM,5.1 fold,0.00017 s⁻¹,120000 M⁻¹ s⁻¹
B5,37 nM,0.1 fold,0.016 s⁻¹,430000 M⁻¹ s⁻¹
B6,0.38 nM,6.8 fold,0.00013 s⁻¹,340000 M⁻¹ s⁻¹
B7,0.15 nM,7.4 fold,0.00012 s⁻¹,780000 M⁻¹ s⁻¹
B8,0.36 nM,7.4 fold,0.00012 s⁻¹,330000 M⁻¹ s⁻¹
B3,4.1 nM,1.4 fold,0.00064 s⁻¹,150000 M⁻¹ s⁻¹
B9,75 nM,0.3 fold,0.0032 s⁻¹,43000 M⁻¹ s⁻¹
B10,15 nM,0.1 fold,0.007 s⁻¹,470000 M⁻¹ s⁻¹
B11,0.27 nM,4.3 fold,0.0002 s⁻¹,770000 M⁻¹ s⁻¹

# Biological target: T1, monovalent hVISTA-ECD (human VISTA …)
# Experiment: SPR, pH 6.0
# Remark: another data set of the same source
# Experimental: as §2
# (§3) This initial campaign led to pH-independent VISTA.4 variants with near equivalent koff at pH 6 and pH 7. In order to obtain an antibody that binds to hVISTA with high affinity at pH 6.0 and low affinity at pH 7.0, a new library based on consensus sequence of pH-independent VISTA.4 variants was designed and constructed, with amino acid residues in the loops substituted for charge amino acid residues (see Example 9), and screened via yeast surface display (see Example 9). The library was analyzed as previously described (see Example 9) and selected variants were reformatted as IgG1.3 for further analysis (Tables 26 and 27). SPR analysis was conducted on these variants using the conditions previously described in Example 9.
Binder,Kd,koff,kon
B5,10 nM,0.027 s⁻¹,2.7e+06 M⁻¹ s⁻¹
B3,4.8 nM,0.0036 s⁻¹,750000 M⁻¹ s⁻¹
B10,1.6 nM,0.012 s⁻¹,7.7e+06 M⁻¹ s⁻¹

# Biological target: T1, monovalent hVISTA-ECD (human VISTA …)
# Experiment: SPR, pH 7.4
# Remark: another data set of the same source
# Experimental: as §2, §3
Binder,Kd,koff,kon
B5,31 nM,0.019 s⁻¹,630000 M⁻¹ s⁻¹
B3,3.4 nM,0.00039 s⁻¹,110000 M⁻¹ s⁻¹
B10,11 nM,0.0078 s⁻¹,770000 M⁻¹ s⁻¹
